# Reference: patent EP3408384B1, “MUTATED CELLOBIOSE DEHYDROGENASE WITH MODIFIED SUBSTRATE SPECIFICITY” (priority 2016, dated 2017)
# System: OC[C@H]1O[C@@H](O[C@H]2[C@H](O)[C@@H](O)C(O)O[C@@H]2CO)[C@H](O)[C@@H](O)[C@H]1O
# Test: Steady-state kinetics, DCIP-based enzymatic activity assay
# Type: biochemical, Neurospora crassa
# Conditions: other: apparent constant, 100 mM McIlvaine buffer pH 5.5, DCIP as artificial electron acceptor, 30°C
# Method: Enzyme activity was assayed at 30°C using the DCIP (Karapetyan et al., 2005 Journal of Biotechnology 121: 34-48) as electron acceptor. Stock solutions of carbohydrates used for kinetic measurements were prepared in the respective buffer and allowed to stand overnight for mutarotation, while stock solutions of electron acceptors were prepared in water and immediately used. The reaction stoichiometry is 1 for the two-electron acceptor DCIP (1 mole of DCIP reduced per mole of carbohydrate oxidized. Kinetic constants were calculated by fitting the observed data to the Henri-Michaelis-Menten equation or to the adapted model for substrate inhibition using nonlinear least-squares regression and the program SigmaPlot (Systat Software, San Jose, CF, USA). The protein concentration was determined with the Bradford assay.
# CDH from N. crassa oxidises glucose and galactose (Harreither et al., 2007), which has negative side effects on the lactose detection accuracy if glucose and galactose are present. […] The enzyme variant N722Q was heterologously produced in P. pastoris according to the explained routines and compared to the recombinant wild-type CDH from N. crassa. […] To investigate the effect of the mutation in the N. crassa variant a full characterization of steady-state constants was performed (Tables 2 and 3). Table 2: Apparent kinetic constants of wtCDH for indicated electron donors in 100 mM McIlvaine buffer at pH 5.5 using DCIP as artificial electron acceptor
# Table 3: Apparent kinetic constants of N722Q N. crassa sensor for indicated electron donors in 100 mM McIlvaine buffer at pH 5.5 using DCIP as artificial electron acceptor
substance,measurement,value
Neurospora crassa cellobiose dehydrogenase (CDH) variant N722Q (N722 of SEQ ID NO: 4 substituted by glutamine) (Neurospora crassa OR74A; N722Q),Km,2.18 ± 0.28 > 10 M^b mM
same,kcat,77.92 s⁻¹
same,kcat/Km,35740 M⁻¹ s⁻¹
